Like-named read-outs stand apart in the source and are kept apart here.
Experiments:
[1] = test system: cells expressing the integrin αvβ6; experiment: Internalization assay; type: cell-based; details: all cells expressing the integrin αvβ6; acidic wash pH 2.5; γ-counter
Description: (§1) Binding to cells with minimal to no expression of integrin αvβ6 was low at 4.4 ± 0.1% to DX3puro cells and 7.9 ± 0.4% to pancreatic MIA PaCa-2 cells. Binding of [^64Cu]PDC-1 to DX3puroβ6 (+) and BxPC-3 (+) was reduced by adding increasing amounts of DOTA-PDC-1, illustrating that the αvβ6-selective uptake could be blocked (Figure S3). Internalization of [^64Cu]-PDC-1 into cells was high with >50% of the bound radioactivity internalized for all cells expressing the integrin αvβ6. In comparison, cell binding of [^64Cu]2 to DX3puroβ6 (+) cells was 58.8 ± 2.3, and 3.3 ± 0.4% to the DX3puro (−) cells.
(§2) Cell binding and internalization assay. Binding and internalization were determined as previously described. […] The fraction of bound radioactivity was determined with a γ-counter (by measuring cell pellet and combined supernatants). To determine the fraction of internalized radioactivity, the cells were re-pelleted, and re-suspended in acidic wash buffer (0.2 M sodium acetate, 0.5 M sodium chloride, pH = 2.5, 300 μL, 4 °C, 5 min) to release surface bound activity, followed by a wash with PBS (300 μL). The internalized fraction was determined with a γ-counter (cell pellet vs. radioactivity released into supernatant). A Wizard 1470 or Wizard 2 2470 automatic γ-counter (Perkin-Elmer, Waltham, MA) was used to measure radioactivity samples. […]

[2] = test system: DX3puro (−) cells; experiment: Cell binding assay, DX3puro; type: cell-based; details: 1 h, 37 °C, γ-counter, n = 3
Description: as §1, §2

[3] = test system: MIA PaCa-2 (−) cells; experiment: Cell binding assay, MIA PaCa-2; type: cell-based; details: 1 h, 37 °C, γ-counter, n = 3
Description: as §1, §2

[4] = Blocking biodistribution, BxPC-3 model; type: in vivo, mice; details: female, athymic nude, mouse, iv, total radioactivity, 4 h p.i., DOTA-2 (50 mg/kg, 205 nmol) i.v. 10 min prior, γ-counter, mean ± SD, n = 2
Protocol: Aliquots of the formulated [^64Cu]PDC-1 in isotonic 0.9% saline (4.81–5.74 MBq, 1.7–2.1 μg, 0.26–0.31 nmol, 100 μL, pH 7.2) were injected i.v. as described above. Following the conscious uptake period, the mice were anesthetized (5% isoflurane), euthanized, and dissected (n ≥ 3/model/time point [4, 24, and 48 h]; the 48 h time point also included the imaging animals sacrificed after the PET scans). Tissues were collected, washed, weighed, and radioactivity measured in a γ-counter. Calibrated, decay-corrected radioactivity was expressed as the percentage of injected dose per gram of tissue (% ID/g). Data are reported as mean ± SD. The mean weights and standard deviation of the DX3puroβ6/DX3puro paired tumor model biodistribution mice were 24.3 ± 1.4 g at 4 h, 28.2 ± 2.9 g at 24 h, and 27.7 ± 2.6 g at 48 h. The mean weights and standard deviation of the BxPC-3 tumor model biodistribution mice were 25.1 ± 1.9 g at 4 h, 27.0 ± 1.1 g at 24 h and 27.1 ± 3.2 g at 48 h. For in vivo blocking studies, DOTA-2 (50 mg/kg, 205 nmol, 1.4 mg in 100 μL 0.9% saline) was injected i.v. into two animals/tumor model 10 min prior to [^64Cu]PDC-1. The animals were sacrificed after 4 h, tissues collected, washed, weighed, and radioactivity measured in a γ-counter. The mean weights and standard deviation for the blocking mice were 24.6 ± 0 and 27.9 ± 0.3 g for the DX3puroβ6/DX3puro paired and BxPC-3 tumor models, respectively.
Blocking biodistribution data of [64Cu]PDC-1 in paired DX3puroβ6/DX3puro and BxPC-3 tumor models.
Tumor Model DX3puroβ6/DX3puro BxPC-3
Table S6. Blocking biodistribution data of [ 64Cu]PDC-1 in paired DX3puroβ6/DX3puro and BxPC-3 tumor
models. Tissue uptake is expressed as the mean of the percentage of injected dose per gram of tissue ±
SD (n = 2/model, n/a = not applicable. P = 0.53 for DX3puroβ6 vs. DX3puro; P = 0.52 for BxPC-3 vs.

[5] = test system: DX3puroβ6 (+) cells; experiment: Cell binding assay, DX3puroβ6; type: cell-based; details: 1 h, 37 °C, γ-counter, n = 3
Description: as §1, §2

In the case of `CC[C@H](C)[C@@H]([C@@H](CC(=O)N1CCC[C@H]1[C@H](OC)[C@@H](C)C(=O)N[C@H](C)[C@@H](O)c1ccccc1)OC)N(C)C(=O)[C@@H](NC(=O)[C@H](C(C)C)N(C)C(=O)OCc1ccc(NC(=O)[C@H](CCCNC(N)=O)NC(=O)[C@@H](NC(=O)CCOCCOCCNC(=O)CCN2C(=O)CC(SC[C@H](NC(=O)CN3CCN(CC(=O)O)CCN(CC(=O)O)CCN(CC(=O)O)CC3)C(=O)NCCOCCOCCOCCOCCOCCOCCOCCOCCOCCOCCOCCOCCOCCOCCOCCOCCOCCOCCOCCOCCOCCOCCOCCOCCOCCOCCOCCOCCC(=O)N[C@@H](CC(N)=O)C(=O)N[C@@H](C)C(=O)N[C@H](C(=O)N3CCC[C@H]3C(=O)N[C@@H](CC(N)=O)C(=O)N[C@@H](CC(C)C)C(=O)N[C@@H](CCCNC(=N)N)C(=O)NCC(=O)N[C@@H](CC(=O)O)C(=O)N[C@@H](CC(C)C)C(=O)N[C@@H](CCC(N)=O)C(=O)N[C@H](C(=O)N[C@@H](CC(C)C)C(=O)N[C@@H](C)C(=O)N[C@@H](CCC(N)=O)C(=O)N[C@@H](CCCNC(=N)N)C(=O)N[C@H](C(=O)N[C@@H](C)C(=O)N[C@@H](CCCNC(=N)N)C(=O)N[C@H](C(=O)NCCOCCOCCOCCOCCOCCOCCOCCOCCOCCOCCOCCOCCOCCOCCOCCOCCOCCOCCOCCOCCOCCOCCOCCOCCOCCOCCOCCOCCC(N)=O)[C@@H](C)O)C(C)C)C(C)C)C(C)C)C2=O)C(C)C)cc1)C(C)C` (some centres unmarked) [[^64Cu]PDC-1, metal not drawn], the “Internalization, fraction of the bound radioactivity internalized” value [1] is reported as over 50%, the Cell binding [2] is reported as 4.4 ± 0.1% and the Cell binding [3] is reported as 7.9 ± 0.4%. It also gave a tissue uptake at 4 h ([4]; BxPC-3 (αvβ6 +) tumor, read-out: Tumor (αvβ6 +) BxPC-3 uptake, blocked) of 0.61 ± 0.05 %ID/g, a tissue uptake at 4 h ([4]; blood, read-out: Blood uptake, blocked) of 0.1 ± 0.02 %ID/g and a tissue uptake at 4 h ([4]; bone, read-out: Bone uptake, blocked) of 0.14 ± 0.03 %ID/g. The tissue uptake at 4 h ([4]; brain, read-out: Brain uptake, blocked) was 0.01 ± 0.01 %ID/g, the tissue uptake at 4 h ([4]; gall bladder, read-out: Gall Bladder uptake, blocked) was 0.94 ± 0.35 %ID/g and the tissue uptake at 4 h ([4]; heart, read-out: Heart uptake, blocked) was 0.21 ± 0.06 %ID/g. It also gave a tissue uptake at 4 h ([4]; kidney, read-out: Kidney uptake, blocked) of 25.7 ± 2.55 %ID/g, a tissue uptake at 4 h ([4]; large intestines, read-out: Large Intestines uptake, blocked) of 0.47 ± 0.08 %ID/g and a tissue uptake at 4 h ([4]; liver, read-out: Liver uptake, blocked) of 1.01 ± 0.16 %ID/g. For the same compound, the tissue uptake at 4 h ([4]; lung, read-out: Lung uptake, blocked) was 0.51 ± 0.16 %ID/g, the tissue uptake at 4 h ([4]; muscle, read-out: Muscle uptake, blocked) was 0.07 ± 0.01 %ID/g and the tissue uptake at 4 h ([4]; pancreas, read-out: Pancreas uptake, blocked) was 0.12 ± 0.01 %ID/g. It also gave a tissue uptake at 4 h ([4]; skin, read-out: Skin uptake, blocked) of 0.31 ± 0.02 %ID/g, a tissue uptake at 4 h ([4]; small intestines, read-out: Small Intestines uptake, blocked) of 0.51 ± 0.09 %ID/g and a tissue uptake at 4 h ([4]; spleen, read-out: Spleen uptake, blocked) of 0.22 ± 0.03 %ID/g. It also gave a tissue uptake at 4 h ([4]; stomach, read-out: Stomach uptake, blocked) of 0.38 ± 0.04 %ID/g and a Cell binding [5] of 67.0 ± 2.3%.
